Results reported in patent US20250281611A1 (BIOSCEPTRE AUST, published 2025).

T1: CD19 (UniProt P15391 20-556, limits assumed)
T1 construct: whole, on cells; also called CD19 on JeKo-1
T1 sequence (looked up): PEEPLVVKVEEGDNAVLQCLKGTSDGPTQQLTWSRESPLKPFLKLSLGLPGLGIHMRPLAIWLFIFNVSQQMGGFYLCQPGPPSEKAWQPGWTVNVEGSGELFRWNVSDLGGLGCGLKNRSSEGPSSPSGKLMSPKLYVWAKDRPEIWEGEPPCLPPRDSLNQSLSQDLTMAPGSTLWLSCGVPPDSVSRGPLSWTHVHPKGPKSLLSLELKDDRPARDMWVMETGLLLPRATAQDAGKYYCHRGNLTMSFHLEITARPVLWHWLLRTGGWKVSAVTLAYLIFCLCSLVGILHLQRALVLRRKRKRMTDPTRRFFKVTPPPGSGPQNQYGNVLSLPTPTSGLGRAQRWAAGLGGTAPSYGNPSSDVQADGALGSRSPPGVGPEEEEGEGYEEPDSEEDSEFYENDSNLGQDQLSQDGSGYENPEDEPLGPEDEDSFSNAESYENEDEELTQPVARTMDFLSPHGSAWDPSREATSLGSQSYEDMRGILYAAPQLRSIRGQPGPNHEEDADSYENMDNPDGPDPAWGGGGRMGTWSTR

B1: CD19 BRIDGE variant B19 (Fab, V domains shown)
VH: EVQLVESGGGLVKPGGSLKLSCAASGYTFTSYVMHWVRQAPGKGLEWIGYINPYNDGTKYNEKFQGRVTISSDKSISTAYMELSSLRSEDTAMYYCARGTYYYGTRVFDYWGQGTLVTVSS
VL: DIVMTQSPATLSLSPGERATLSCRSSKSLQNVNGNTYLYWFQQKPGQSPQLLIYRMSNLNSGVPDRFSGSGSGTEFTLTISSLEPEDFAVYYCMQHLEYPITFGAGTKLEIKR
B2: CD19 BRIDGE variant B20 (Fab, V domains shown)
VH: B1 VH
VL: B1 VL
B3: CD19 BRIDGE variant B25 (Fab, V domains shown)
VH: B1 VH
VL: B1 VL
B4: CD19 BRIDGE variant B16 (Fab)
heavy: EVQLVESGGGLVKPGGSLKLSCAASGYTFTSYVMHWVRQAPGKGLEWIGYINPYNDGTKYNEKFQGRVTISSDKSISTAYMELSSLRSEDTAMYYCARGTYYYGTRVFDYWGQGTLVTVSSASTKGPSVFPLAPSSKSTSGGTAALGCLVKDYFPEPVTVSWNSGALTSGVHTFPAVLQSSGLYSLSSVVTVPSSSLGTQTYICNVNHKPSNTKVDKKVEPKSCHHHHHH
light: GHNYTTRNILPGLNITSTFHKTSGSGKEPKSSDKTHTGGGGSDIVMTQSPATLSLSPGERATLSCRSSKSLQNVNGNTYLYWFQQKPGQSPQLLIYRMSNLNSGVPDRFSGSGSGTEFTLTISSLEPEDFAVYYCMQHLEYPITFGAGTKLEIKRTVAAPSVFIFPPSDEQLKSGTASVVCLLNNFYPREAKVQWKVDNALQSGNSQESVTEQDSKDSTYSLSSTLTLSKADYEKHKVYACEVTHQGLSSPVTKSFNRGEC
B5: CD19 BRIDGE variant B22 (Fab)
heavy: B4 heavy
light: DFPGHNYTTRNILPGLNITSTFHKTSGSGKEPKSSDKTHTDIVMTQSPATLSLSPGERATLSCRSSKSLQNVNGNTYLYWFQQKPGQSPQLLIYRMSNLNSGVPDRFSGSGSGTEFTLTISSLEPEDFAVYYCMQHLEYPITFGAGTKLEIKRTVAAPSVFIFPPSDEQLKSGTASVVCLLNNFYPREAKVQWKVDNALQSGNSQESVTEQDSKDSTYSLSSTLTLSKADYEKHKVYACEVTHQGLSSPVTKSFNRGEC
B6: CD19 BRIDGE variant B17 (Fab)
heavy: B4 heavy
light: GHNYTTRNILPGLNITSTFHKTSGSGKGSEPKSSDKTHTGGGGSDIVMTQSPATLSLSPGERATLSCRSSKSLQNVNGNTYLYWFQQKPGQSPQLLIYRMSNLNSGVPDRFSGSGSGTEFTLTISSLEPEDFAVYYCMQHLEYPITFGAGTKLEIKRTVAAPSVFIFPPSDEQLKSGTASVVCLLNNFYPREAKVQWKVDNALQSGNSQESVTEQDSKDSTYSLSSTLTLSKADYEKHKVYACEVTHQGLSSPVTKSFNRGEC
B7: CD19 BRIDGE variant B21 (Fab)
heavy: B4 heavy
light: DFPGHNYTTRNILPGLNITSGGGGSEPKSSDKTHTDIVMTQSPATLSLSPGERATLSCRSSKSLQNVNGNTYLYWFQQKPGQSPQLLIYRMSNLNSGVPDRFSGSGSGTEFTLTISSLEPEDFAVYYCMQHLEYPITFGAGTKLEIKRTVAAPSVFIFPPSDEQLKSGTASVVCLLNNFYPREAKVQWKVDNALQSGNSQESVTEQDSKDSTYSLSSTLTLSKADYEKHKVYACEVTHQGLSSPVTKSFNRGEC
B8: CD19 BRIDGE variant B18 (Fab)
heavy: B4 heavy
light: GHNYTTRNILPGLNITSTFHKTSGSGKGGGGSEPKSSDKTHTGGGGSDIVMTQSPATLSLSPGERATLSCRSSKSLQNVNGNTYLYWFQQKPGQSPQLLIYRMSNLNSGVPDRFSGSGSGTEFTLTISSLEPEDFAVYYCMQHLEYPITFGAGTKLEIKRTVAAPSVFIFPPSDEQLKSGTASVVCLLNNFYPREAKVQWKVDNALQSGNSQESVTEQDSKDSTYSLSSTLTLSKADYEKHKVYACEVTHQGLSSPVTKSFNRGEC

How the values were obtained:
[1] = molecular target: T2, nfP2X7 CAR 1; experiment: flow cytometry, nfP2X7 CAR 1 T cells (EGFR+ gate), anti-His-FITC detection
T2 construct: CAR-positive cells gated by the co-expressed EGFR marker; also called nfP2X7 targeted CAR; nfP2X7 CAR on EGFR+ T cells
Description: (§1) nfP2X₇ CAR T cells were incubated with different BRiDGE variants at saturating concentrations. […] The MFI intensity correlates with the number of secondary bound antibodies bound to the BRiDGEs that are only detected if they are bound to the CAR T cells. EGFR was used as a marker gene to detect the CAR expression. Thus, the EGFR+ T cell population was defined as the CAR expressing cells and the EGFR− T cell population was defined as the CAR negative subset. MFI: median fluorescence intensity. EGFR: epidermal growth factor receptor. BLItz: Bio-Layer interferometry (BLI) technology using HIS-tag identification tips. HIS-tag MFI Ratio: relative index that is calculated by the testing condition MFI divided by the control MFI, which corresponds to the MFI measured on EGFR+ T cells (defined as CAR positive cells) divided by the MFI measured on the EGFR− T cells (defined as CAR negative cells). […] The higher the MFIR, the stronger the binding.

[2] = molecular target: T2, nfP2X7 CAR 1; experiment: flow cytometry, anti-His-FITC, MFI on EGFR+ (CAR+) over EGFR- (CAR-) T cells
Description: as §1

[3] = molecular target: T2, nfP2X7 CAR 1; experiment: flow cytometry, anti-His-FITC, MFI on EGFR+ (CAR+) T cells over background 0.44
Description: as §1

[4] = molecular target: T1, CD19; experiment: flow cytometry, JeKo-1 cells, BIL03s-AF647 detection, MFI over no-bridge control
Description: (§2) JeKo-1 cells were incubated with different CD19 BRiDGE variants at saturating concentrations. […] The MFI intensity correlates with the number of secondary bound antibodies bound to the CD19 BRiDGE variants that are only detected if they are bound to the JeKo-1 cells. MFI: median fluorescence intensity. BLitz: Bio-Layer interferometry (BLI) technology using HIS-tag identification tips. […] The higher the MFIR, the stronger the binding.

[5] = molecular target: T1, CD19; experiment: flow cytometry, JeKo-1 cells, bridge at saturating conc., BIL03s-AF647 detection
Description: as §2

[6] = molecular target: T1, CD19; experiment: flow cytometry, JeKo-1 cells, anti-His-FITC detection, MFI over no-bridge control
Description: as §2

[7] = molecular target: T1, CD19; experiment: flow cytometry, JeKo-1 cells, bridge at saturating conc., anti-His-FITC detection
Description: as §2

| Binder | MFI HisTag FITC in EGFR+ Population [1] | HisTag MFI Ratio of EGFR+/EGFR- [2] | HisTag MFI Ratio (background 0.44) [3] | MFIR BIL03 AF647 [4] | MFI Bil03 AF647 [5] | MFIR HisTag FITC [6] | MFI HisTag FITC [7] |
| --- | --- | --- | --- | --- | --- | --- | --- |
| B1 | 2.16 | 4.1 | 4.9 | 10.7 | 4.9 | 3.51 | 2.7 |
| B2 | 2.11 | 4.1 | 4.8 | 9.07 | 4.17 | 3.39 | 2.61 |
| B3 | 2.28 | 4 | 5.2 | 10.9 | 5 | 3.01 | 2.32 |
| B4 | 2.34 | 4.6 | 5.3 | 17.6 | 8.08 | 3.71 | 2.86 |
| B5 | 2.21 | 4 | 5 | 10.5 | 4.85 | 3.3 | 2.54 |
| B6 | 2.25 | 4.2 | 5.1 | 20.2 | 9.3 | 3.87 | 2.98 |
| B7 | 2.19 | 4.1 | 5 | 8.83 | 4.06 | 3.32 | 2.56 |
| B8 | 2.25 | 4.2 | 5.1 | 23.7 | 10.9 | 3.94 | 3.03 |
